Blank lines part the entries; values can stand above or below the molecule they belong to.
Tests used:
[1] = target: SP-BM generated from human proSP-B by proteinase K (human) (UniProt P07988); test: reducing and non-reducing SDS-PAGE
non-reducing SDS-PAGE = target: the molecule itself; test: non-reducing SDS-PAGE

stoichiometry N [1]: 2
Molecule: SP-BM generated from human proSP-B by proteinase K (from UniProt P07988 201-279) (domain or fragment)

B1: SP-BM purified from bovine lungs (natural protein, UniProt P15781 188-266, looked up)
chain: FPIPIPYCWLCRTLIKRIQAVIPKGVLAMTVAQVCHVVPLLVGGICQCLVERYSVILLDTLLGRMLPQLVCGLVLRCSS
stoichiometry N (non-reducing SDS-PAGE): 2

Reference: paper PMC7797001 (Molecular cell, 2020)
